Results taken from patent US20250026836A1.

Assays:
[1] = molecular target: HLA-G1 isoform expressed on Expi293F cells (human) (UniProt P17693); test: flow cytometry on Expi293F cells transfected with HLA-G1, negative control staining
[2] = molecular target: HLA-G2 isoform expressed on Expi293F cells (human) (UniProt P17693); test: flow cytometry on Expi293F cells transfected with HLA-G2, negative control staining
[3] = molecular target: HLA-G4 isoform expressed on Expi293F cells (human) (UniProt P17693); test: flow cytometry on Expi293F cells transfected with HLA-G4, negative control staining
[4] = molecular target: HLA-G2 isoform expressed on Expi293F cells (human) (UniProt P17693); test: flow cytometry on Expi293F cells transfected with HLA-G2, negative control staining; same profile as the HLA-G2 row of FIG. 5A, drawn larger
[5] = molecular target: HLA-G1 isoform expressed on Expi293F cells (human) (UniProt P17693); test: flow cytometry on Expi293F cells transfected with HLA-G1, antibody 10 µg/ml
[6] = molecular target: HLA-G2 isoform expressed on Expi293F cells (human) (UniProt P17693); test: flow cytometry on Expi293F cells transfected with HLA-G2, antibody 10 µg/ml
[7] = molecular target: HLA-G3 isoform expressed on Expi293F cells (human) (UniProt P17693); test: flow cytometry on Expi293F cells transfected with HLA-G3, antibody 10 µg/ml
[8] = molecular target: HLA-G4 isoform expressed on Expi293F cells (human) (UniProt P17693); test: flow cytometry on Expi293F cells transfected with HLA-G4, antibody 10 µg/ml

% (positive cells) [1] | % (positive cells) [2] | % (positive cells) [3] | % (positive cells) [4] | % of the cells stained [5] | % of the cells stained [6] | % of the cells stained [7] | % of the cells stained [8] | Substance
1% | 1% | 2% | 1% |  |  |  |  | 2nd Ab (neg CTRL) (antibody)
 |  |  |  | 81% | 34% | 67% | 16% | commercial Mouse anti-HLA-G antibody 4H84 (Abcam, Mouse IgG1)
